{
  "source": "patent WO2019186276A2",
  "about": "(dated 2019)",
  "binders": {"B1": {"name": "monoclonal antibody DC2E2 (antibody, V domains shown)", "VH": "EVQLQQSGAELVRPGALVKLSCKASGFNIKDYYMHWVRQRPDQGLEWIGWLDPENDHTIYDPRFQDRANLTADTSSNTAYLQLSSLTSEDTAVYYCSYYKYDDYWGQGTTLTVS", "VL": "not shown", "notes": "also called DC2E2 mAb; hybridoma ATCC PTA-124991"}, "B2": {"name": "peptide tau 161-190 (peptide)", "peptide": "GQKGQANATRIPAKTPPAPKTPPSSGEPPK", "notes": "Synthetic peptide (EZBiolabs)"}, "B3": {"name": "peptide tau 210-220/pT212/pT217 (peptide)", "peptide": "SR[pT]PSLP[pT]PPT", "notes": "Synthetic peptide (EZBiolabs)"}, "B4": {"name": "peptide tau 210-219/pT212/pT217 (peptide)", "peptide": "SR[pT]PSLP[pT]PP", "notes": "Synthetic peptide (EZBiolabs)"}, "B5": {"name": "peptide tau 210-218/pT212/pT217 (peptide)", "peptide": "SR[pT]PSLP[pT]P", "notes": "Synthetic peptide (EZBiolabs)"}, "B6": {"name": "peptide tau 171-200 (peptide)", "peptide": "IPAKTPPAPKTPPSSGEPPKSGDRSGYSSP", "notes": "Synthetic peptide (EZBiolabs)"}, "B7": {"name": "peptide tau 181-210 (peptide)", "peptide": "TPPSSGEPPKSGDRSGYSSPGSPGTPGSRS", "notes": "Synthetic peptide (EZBiolabs)"}, "B8": {"name": "peptide tau 141-170 (peptide)", "peptide": "KAKGADGKTKIATPRGAAPPGQKGQANATR", "notes": "Synthetic peptide (EZBiolabs)"}, "B9": {"name": "monoclonal antibody DC2E7 (antibody, V domains shown)", "VH": "DVQLVESGGGLVQPGGSRKLSCAASGFTFSSFGMHWVRQAPEKGLEWVAYISGDSNTIYYADTVKGRFTISRDNPKNTLFLQMTSLRSEDTAIYYCARTLAYWGQGTLVTVS", "VL": "DIQMTQSSSSFSVSLGDRVTITCKASEDIYNRLAWYQQTPGNAPSLLISGASGLETGVPSRFSGSGSGRDYTLSITSLQTEDVATYYCLQYWSIPWTFGGGTKLEIKR", "notes": "also called hybridoma ATCC PTA-124992"}},
  "key": {"tau 1-242": {"biological_target": "T1, tau 1-242 (human, UniProt P10636 1-559)", "T1 construct": "Deletion mutant numbered on tau 2N4R", "T1 sequence (P10636 other isoform, or with tags, fused parts or gaps)": "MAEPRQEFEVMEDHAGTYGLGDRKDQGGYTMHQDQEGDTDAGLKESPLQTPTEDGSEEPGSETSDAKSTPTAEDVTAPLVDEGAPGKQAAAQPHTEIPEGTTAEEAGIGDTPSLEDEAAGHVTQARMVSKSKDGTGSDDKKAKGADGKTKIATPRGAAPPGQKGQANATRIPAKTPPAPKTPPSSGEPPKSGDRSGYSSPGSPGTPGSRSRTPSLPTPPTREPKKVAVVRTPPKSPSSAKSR", "experiment": "ELISA screen of hybridoma supernatants on coated tau 1-242"}, "[1]": {"biological_target": "T2, in vitro phosphorylated tau 2N4R (human, UniProt P10636 1-758, in vitro phosphorylated with rat brain kinase extract; sites not determined)", "T2 construct": "also called phosphorylated 2N4R; 2N4R in vitro phosphorylated", "T2 sequence (P10636 other isoform, or with tags, fused parts or gaps limits assumed)": "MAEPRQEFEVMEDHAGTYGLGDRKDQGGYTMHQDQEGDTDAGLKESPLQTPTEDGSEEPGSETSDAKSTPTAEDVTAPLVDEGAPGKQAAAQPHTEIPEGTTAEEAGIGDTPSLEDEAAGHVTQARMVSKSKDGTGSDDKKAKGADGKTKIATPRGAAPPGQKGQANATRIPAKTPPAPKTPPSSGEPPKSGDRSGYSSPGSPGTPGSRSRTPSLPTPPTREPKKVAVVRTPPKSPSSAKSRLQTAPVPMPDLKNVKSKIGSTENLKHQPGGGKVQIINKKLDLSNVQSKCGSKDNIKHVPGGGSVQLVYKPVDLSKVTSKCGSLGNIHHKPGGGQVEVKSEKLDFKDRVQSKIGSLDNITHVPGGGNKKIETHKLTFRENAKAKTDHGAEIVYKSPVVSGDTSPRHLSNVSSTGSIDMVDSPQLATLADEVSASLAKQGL", "experiment": "immunoblot"}, "[2]": {"biological_target": "T3, recombinant human full-length tau 2N4R (human, UniProt P10636 1-758)", "T3 construct": "Expressed in E. coli, unphosphorylated; also called tau441; physiological tau (2N4R)", "experiment": "immunoblot"}, "[3]": {"biological_target": "in vitro phosphorylated tau151-391 (human, UniProt P10636 468-708, in vitro phosphorylated with rat brain kinase extract; sites not determined)", "sequence (P10636 468-708 I625L)": "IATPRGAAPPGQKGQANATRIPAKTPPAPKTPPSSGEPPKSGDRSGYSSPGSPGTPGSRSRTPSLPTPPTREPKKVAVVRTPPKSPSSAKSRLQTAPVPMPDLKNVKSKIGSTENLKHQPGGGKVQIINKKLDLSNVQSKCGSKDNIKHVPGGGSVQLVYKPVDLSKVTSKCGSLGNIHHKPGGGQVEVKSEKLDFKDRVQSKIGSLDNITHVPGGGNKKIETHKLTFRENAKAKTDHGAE", "experiment": "immunoblot"}, "tau 127-441": {"biological_target": "tau 127-441 (human, UniProt P10636 378-758)", "sequence (P10636 other isoform, or with tags, fused parts or gaps)": "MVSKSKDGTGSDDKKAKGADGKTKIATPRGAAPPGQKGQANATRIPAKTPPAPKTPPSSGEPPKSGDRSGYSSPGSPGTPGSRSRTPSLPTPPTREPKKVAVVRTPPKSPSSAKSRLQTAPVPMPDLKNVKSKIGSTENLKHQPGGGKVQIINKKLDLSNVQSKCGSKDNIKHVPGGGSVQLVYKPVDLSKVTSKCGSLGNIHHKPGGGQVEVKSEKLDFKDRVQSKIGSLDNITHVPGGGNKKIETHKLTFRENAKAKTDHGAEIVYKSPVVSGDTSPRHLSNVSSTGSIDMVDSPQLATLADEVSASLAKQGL", "experiment": "direct ELISA, coated recombinant tau, hybridoma supernatant"}, "tau 1-226": {"biological_target": "tau 1-226 (human, UniProt P10636 1-543)", "sequence (P10636 other isoform, or with tags, fused parts or gaps)": "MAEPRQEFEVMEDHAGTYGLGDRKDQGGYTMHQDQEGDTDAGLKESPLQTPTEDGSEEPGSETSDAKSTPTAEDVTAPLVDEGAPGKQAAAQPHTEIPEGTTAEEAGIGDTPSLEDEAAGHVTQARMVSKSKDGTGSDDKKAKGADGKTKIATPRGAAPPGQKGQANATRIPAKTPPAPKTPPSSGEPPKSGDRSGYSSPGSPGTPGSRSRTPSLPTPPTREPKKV", "experiment": "direct ELISA, coated recombinant tau, hybridoma supernatant"}, "tau 99-441": {"biological_target": "tau 99-441 (human, UniProt P10636 99-758)", "sequence (P10636 other isoform, or with tags, fused parts or gaps)": "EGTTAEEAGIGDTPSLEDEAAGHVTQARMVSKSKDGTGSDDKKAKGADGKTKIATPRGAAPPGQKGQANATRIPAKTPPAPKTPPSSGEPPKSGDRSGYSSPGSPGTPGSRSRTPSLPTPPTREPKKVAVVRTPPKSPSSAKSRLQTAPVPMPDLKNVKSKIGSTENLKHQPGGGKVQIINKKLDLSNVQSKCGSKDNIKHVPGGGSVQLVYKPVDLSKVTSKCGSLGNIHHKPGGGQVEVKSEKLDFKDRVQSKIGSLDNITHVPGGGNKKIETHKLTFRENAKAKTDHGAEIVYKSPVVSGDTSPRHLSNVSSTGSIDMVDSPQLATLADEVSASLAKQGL", "experiment": "direct ELISA, coated recombinant tau, hybridoma supernatant"}, "[4]": {"biological_target": "recombinant human tau isoform 1N4R (human, UniProt P10636-7 1-412)", "sequence (P10636 other isoform, or with tags, fused parts or gaps limits assumed)": "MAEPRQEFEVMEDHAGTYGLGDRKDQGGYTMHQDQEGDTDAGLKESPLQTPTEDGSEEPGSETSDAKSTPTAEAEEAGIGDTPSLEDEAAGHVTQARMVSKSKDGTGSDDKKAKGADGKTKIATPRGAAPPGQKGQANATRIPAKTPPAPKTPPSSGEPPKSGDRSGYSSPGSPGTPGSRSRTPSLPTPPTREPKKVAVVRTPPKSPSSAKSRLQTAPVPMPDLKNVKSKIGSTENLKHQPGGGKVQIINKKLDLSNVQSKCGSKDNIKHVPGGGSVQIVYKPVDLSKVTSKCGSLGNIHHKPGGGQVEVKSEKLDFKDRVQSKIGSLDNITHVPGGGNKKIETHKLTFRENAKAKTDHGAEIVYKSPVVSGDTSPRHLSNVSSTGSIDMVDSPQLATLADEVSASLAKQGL", "experiment": "direct ELISA, coated recombinant tau, hybridoma supernatant"}, "[5]": {"biological_target": "recombinant human tau isoform 2N3R (human, UniProt P10636-5 1-410)", "experiment": "direct ELISA, coated recombinant tau, hybridoma supernatant"}, "[6]": {"biological_target": "recombinant human tau isoform 1N3R (human, UniProt P10636-4 1-381)", "sequence (P10636 other isoform, or with tags, fused parts or gaps limits assumed)": "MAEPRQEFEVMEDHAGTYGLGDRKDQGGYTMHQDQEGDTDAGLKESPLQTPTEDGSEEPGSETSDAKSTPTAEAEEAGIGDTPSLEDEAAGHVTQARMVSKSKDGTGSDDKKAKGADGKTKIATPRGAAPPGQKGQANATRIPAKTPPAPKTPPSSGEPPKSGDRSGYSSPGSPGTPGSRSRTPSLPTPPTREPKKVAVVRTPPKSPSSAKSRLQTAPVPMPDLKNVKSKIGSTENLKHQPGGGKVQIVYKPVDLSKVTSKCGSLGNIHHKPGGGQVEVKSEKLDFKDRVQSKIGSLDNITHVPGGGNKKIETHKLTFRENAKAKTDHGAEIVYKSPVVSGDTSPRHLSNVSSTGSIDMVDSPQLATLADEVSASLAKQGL", "experiment": "direct ELISA, coated recombinant tau, hybridoma supernatant"}, "[7]": {"biological_target": "recombinant human tau isoform 0N3R (human, UniProt P10636-2 1-352)", "experiment": "direct ELISA, coated recombinant tau, hybridoma supernatant"}, "tau151-391": {"biological_target": "tau151-391 (human, UniProt P10636 468-708)", "sequence (P10636 468-708 I625L)": "as the sequence (P10636 468-708 I625L) above", "experiment": "direct ELISA, coated recombinant tau, hybridoma supernatant"}, "[8]": {"biological_target": "recombinant human tau isoform 0N4R (human, UniProt P10636-6 1-383)", "sequence (P10636 other isoform, or with tags, fused parts or gaps limits assumed)": "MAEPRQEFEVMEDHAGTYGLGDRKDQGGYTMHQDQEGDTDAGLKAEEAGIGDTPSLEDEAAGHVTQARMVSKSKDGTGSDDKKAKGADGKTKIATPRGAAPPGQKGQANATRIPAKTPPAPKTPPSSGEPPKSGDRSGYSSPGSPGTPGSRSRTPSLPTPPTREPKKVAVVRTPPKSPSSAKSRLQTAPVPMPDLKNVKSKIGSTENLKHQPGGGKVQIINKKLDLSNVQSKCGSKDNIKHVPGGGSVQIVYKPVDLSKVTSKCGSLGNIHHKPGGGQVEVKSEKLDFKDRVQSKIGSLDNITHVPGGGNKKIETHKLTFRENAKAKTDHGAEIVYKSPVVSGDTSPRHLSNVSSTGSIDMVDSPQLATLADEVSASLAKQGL", "experiment": "direct ELISA, coated recombinant tau, hybridoma supernatant"}, "tau 31-441": {"biological_target": "tau 31-441 (human, UniProt P10636 31-758)", "experiment": "direct ELISA, coated recombinant tau, hybridoma supernatant"}, "tau 221-441": {"biological_target": "T4, tau 221-441 (human, UniProt P10636 538-758)", "T4 construct": "Unphosphorylated form used in the DC2E2 ELISA", "T4 sequence (P10636 538-758 I625L)": "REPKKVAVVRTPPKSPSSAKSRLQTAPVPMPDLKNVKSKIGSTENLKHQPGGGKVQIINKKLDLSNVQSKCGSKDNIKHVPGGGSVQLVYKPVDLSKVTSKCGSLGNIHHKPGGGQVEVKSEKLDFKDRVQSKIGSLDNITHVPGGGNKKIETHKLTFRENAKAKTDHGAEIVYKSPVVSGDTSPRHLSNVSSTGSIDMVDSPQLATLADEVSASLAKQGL", "experiment": "direct ELISA, coated recombinant tau (5 ug/ml), hybridoma supernatant"}, "tau 1-136": {"biological_target": "tau 1-136 (human, UniProt P10636 1-387)", "sequence (P10636 other isoform, or with tags, fused parts or gaps)": "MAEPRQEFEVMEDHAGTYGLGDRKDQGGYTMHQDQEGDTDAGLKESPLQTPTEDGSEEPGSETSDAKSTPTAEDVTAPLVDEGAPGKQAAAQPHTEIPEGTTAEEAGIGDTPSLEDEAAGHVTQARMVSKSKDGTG", "experiment": "direct ELISA, coated recombinant tau (5 ug/ml), hybridoma supernatant"}, "tau 2N4R(A134-168)": {"biological_target": "T5, tau 2N4R(A134-168) (human, UniProt P10636 1-758)", "T5 construct": "The printed 'A' is read as the delta sign (deletion of 134-168); also called tau 2N4R with residues 134-168 deleted", "T5 sequence (P10636 other isoform, or with tags, fused parts or gaps)": "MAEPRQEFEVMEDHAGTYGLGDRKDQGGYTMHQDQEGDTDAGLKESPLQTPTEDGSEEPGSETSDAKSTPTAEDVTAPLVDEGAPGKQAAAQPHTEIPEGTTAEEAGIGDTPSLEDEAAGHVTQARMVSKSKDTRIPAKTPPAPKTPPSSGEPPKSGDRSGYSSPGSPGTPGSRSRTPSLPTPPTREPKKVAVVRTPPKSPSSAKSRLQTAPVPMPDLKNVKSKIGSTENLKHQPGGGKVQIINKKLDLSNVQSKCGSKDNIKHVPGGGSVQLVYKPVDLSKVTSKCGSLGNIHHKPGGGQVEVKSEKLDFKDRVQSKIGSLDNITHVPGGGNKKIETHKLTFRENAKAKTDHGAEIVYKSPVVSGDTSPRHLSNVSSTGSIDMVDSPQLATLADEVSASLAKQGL", "experiment": "direct ELISA, coated recombinant tau (5 ug/ml), hybridoma supernatant"}, "[9]": {"biological_target": "B1", "experiment": "competition ELISA, coated tau 1-242, peptide in solution with purified DC2E2"}, "[10]": {"biological_target": "B9", "experiment": "competition ELISA, peptide in solution with DC2E7, PHF-tau coated plate"}, "[11]": {"biological_target": "B1", "experiment": "competition ELISA, coated tau 1-242, peptide in solution"}, "[12]": {"biological_target": "phosphorylated tau 221-441 (human, UniProt P10636 538-758, in vitro phosphorylated with rat brain kinase extract; sites not determined)", "sequence (P10636 538-758 I625L)": "as the sequence (P10636 538-758 I625L) above", "experiment": "immunoblot of in vitro phosphorylated deletion mutants"}, "[13]": {"biological_target": "phosphorylated tau 2N4R point mutant Thr217Ala (human, UniProt P10636 1-758, in vitro phosphorylated with rat brain kinase extract; sites not determined)", "experiment": "immunoblot of in vitro phosphorylated point mutants"}},
  "note": "Where no end group is shown, it is not given here. [ ]: non-standard residue; d: D form. pT = C[C@@H](OP(=O)(O)O)[C@H](N)C(=O)O",
  "data": [
    {"binder": "B1", "values": [
      {"measurement": "binding result", "setting": "tau 1-242", "result": "binds"},
      {"measurement": "binding result", "setting": "[1]", "result": "binds"},
      {"measurement": "binding result", "setting": "[2]", "result": "binds"},
      {"measurement": "binding result", "setting": "[3]", "result": "binds"},
      {"measurement": "binding result", "setting": "tau 127-441", "result": "binds"},
      {"measurement": "binding result", "setting": "tau 1-226", "result": "binds"},
      {"measurement": "binding result", "setting": "tau 99-441", "result": "binds"},
      {"measurement": "binding result", "setting": "[4]", "result": "binds"},
      {"measurement": "binding result", "setting": "[5]", "result": "binds"},
      {"measurement": "binding result", "setting": "[6]", "result": "binds"},
      {"measurement": "binding result", "setting": "[7]", "result": "binds"},
      {"measurement": "binding result", "setting": "tau151-391", "result": "binds"},
      {"measurement": "binding result", "setting": "[8]", "result": "binds"},
      {"measurement": "binding result", "setting": "tau 31-441", "result": "binds"},
      {"measurement": "binding result", "setting": "tau 221-441", "result": "no binding"},
      {"measurement": "binding result", "setting": "tau 1-136", "result": "no binding"},
      {"measurement": "binding result", "setting": "tau 2N4R(A134-168)", "result": "no binding"}
    ]},
    {"binder": "B2", "values": [
      {"measurement": "binding result", "setting": "[9]", "result": "binds"}
    ]},
    {"binder": "B3", "values": [
      {"measurement": "binding result", "setting": "[10]", "result": "no binding"}
    ]},
    {"binder": "B4", "values": [
      {"measurement": "binding result", "setting": "[10]", "result": "no binding"}
    ]},
    {"binder": "B5", "values": [
      {"measurement": "binding result", "setting": "[10]", "result": "no binding"}
    ]},
    {"binder": "B6", "values": [
      {"measurement": "binding result", "setting": "[11]", "result": "no binding"}
    ]},
    {"binder": "B7", "values": [
      {"measurement": "binding result", "setting": "[11]", "result": "no binding"}
    ]},
    {"binder": "B8", "values": [
      {"measurement": "binding result", "setting": "[11]", "result": "no binding"}
    ]},
    {"binder": "B9", "values": [
      {"measurement": "binding result", "setting": "[12]", "result": "no binding"},
      {"measurement": "binding result", "setting": "[13]", "result": "no binding"}
    ]}
  ]
}
